Results reported in the supplement of paper PMC10567573.

B1: GMCL1 (parent)
chain: RPDTGDDAAGHGFCYCAGSHKRKR

Variants of: B1
Assay: protein stability index of a GFP-peptide fusion (GPS, HEK-293T) (PSI 1-6); higher = more stable
Settings: c terminus: a fixed tail appended
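Further: lentivirally expressed fusions sorted by FACS into six bins by GFP to DsRed ratio, PSI derived from sequencing read proportions per bin multiplied by bin number.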

In order of rising protein stability index:
1. YPDTGDDAAGHGFCYCAGSHKRKR  2
2. RPDCGDDAAGHGFCYCAGSHKRKR  2.14
3. RPGTGDDAAGHGFCYCAGSHKRKR  2.19
4. RPDTGDWAAGHGFCYCAGSHKRKR  2.2
5. RPMTGDDAAGHGFCYCAGSHKRKR  2.3
6. RTDTGDDAAGHGFCYCAGSHKRKR  2.3
7. IPDTGDDAAGHGFCYCAGSHKRKR  2.34
8. RPDTGDDAALHGFCYCAGSHKRKR  2.36
9. RPDTGDDLAGHGFCYCAGSHKRKR  2.36
10. RPETGDDAAGHGFCYCAGSHKRKR  2.41
11. RPDTGDDAAGCGFCYCAGSHKRKR  2.47
12. RPDTGDDAHGHGFCYCAGSHKRKR  2.48
13. RPDTHDDAAGHGFCYCAGSHKRKR  2.48
14. VPDTGDDAAGHGFCYCAGSHKRKR  2.5
15. RPQTGDDAAGHGFCYCAGSHKRKR  2.51
16. RPDTFDDAAGHGFCYCAGSHKRKR  2.59
17. RPDTWDDAAGHGFCYCAGSHKRKR  2.59
18. RPDTGDDFAGHGFCYCAGSHKRKR  2.61
19. RPDTGDDYAGHGFCYCAGSHKRKR  2.61
20. RPATGDDAAGHGFCYCAGSHKRKR  2.62
21. RPDTGDDAIGHGFCYCAGSHKRKR  2.65
22. RPDTGDDASGHGFCYCAGSHKRKR  2.7
23. RPDTGDDALGHGFCYCAGSHKRKR  2.71
24. RPDWGDDAAGHGFCYCAGSHKRKR  2.71
25. RPDTGDDAAIHGFCYCAGSHKRKR  2.71
26. PPDTGDDAAGHGFCYCAGSHKRKR  2.71
27. RPDTGDDAFGHGFCYCAGSHKRKR  2.72
28. RPDTGFDAAGHGFCYCAGSHKRKR  2.73
29. RPDTGDDAAPHGFCYCAGSHKRKR  2.73
30. RPDTGDDTAGHGFCYCAGSHKRKR  2.73
31. RPFTGDDAAGHGFCYCAGSHKRKR  2.76
32. RLDTGDDAAGHGFCYCAGSHKRKR  2.77
33. RPDTGDDAACHGFCYCAGSHKRKR  2.78
34. RPDTGMDAAGHGFCYCAGSHKRKR  2.79
35. RPDTGHDAAGHGFCYCAGSHKRKR  2.8
36. RPDLGDDAAGHGFCYCAGSHKRKR  2.81
37. RPDTGDDAARHGFCYCAGSHKRKR  2.81
38. RPDTGDFAAGHGFCYCAGSHKRKR  2.83
39. RPDTGDQAAGHGFCYCAGSHKRKR  2.83
40. NPDTGDDAAGHGFCYCAGSHKRKR  2.83
41. RPDTGDDAAWHGFCYCAGSHKRKR  2.84
42. RPDTMDDAAGHGFCYCAGSHKRKR  2.84
43. RRDTGDDAAGHGFCYCAGSHKRKR  2.85
44. RPDTGDDMAGHGFCYCAGSHKRKR  2.85
45. RPTTGDDAAGHGFCYCAGSHKRKR  2.86
46. RPDTGDDAAAHGFCYCAGSHKRKR  2.86
47. RPDYGDDAAGHGFCYCAGSHKRKR  2.87
48. RPDTQDDAAGHGFCYCAGSHKRKR  2.87
49. RPDTGTDAAGHGFCYCAGSHKRKR  2.89
50. RVDTGDDAAGHGFCYCAGSHKRKR  2.89
51. RPDTDDDAAGHGFCYCAGSHKRKR  2.89
52. RPDTGDDAAFHGFCYCAGSHKRKR  2.9
53. RQDTGDDAAGHGFCYCAGSHKRKR  2.91
54. RFDTGDDAAGHGFCYCAGSHKRKR  2.91
55. RPDTGDDAAYHGFCYCAGSHKRKR  2.91
56. RPDTGVDAAGHGFCYCAGSHKRKR  2.93
57. RPDTEDDAAGHGFCYCAGSHKRKR  2.93
58. RPDTGDDKAGHGFCYCAGSHKRKR  2.94
59. RSDTGDDAAGHGFCYCAGSHKRKR  2.95
60. RPDTGDDAASHGFCYCAGSHKRKR  2.95
61. RPDTGDDAMGHGFCYCAGSHKRKR  2.96
62. RPDTGDDAWGHGFCYCAGSHKRKR  2.96
63. RPDTGDDAVGHGFCYCAGSHKRKR  2.96
64. RPDPGDDAAGHGFCYCAGSHKRKR  2.96
65. RPDTGPDAAGHGFCYCAGSHKRKR  2.96
66. RHDTGDDAAGHGFCYCAGSHKRKR  2.96
67. SPDTGDDAAGHGFCYCAGSHKRKR  2.96
68. RPDTGDDNAGHGFCYCAGSHKRKR  2.96
69. RPDNGDDAAGHGFCYCAGSHKRKR  2.97
70. RPCTGDDAAGHGFCYCAGSHKRKR  2.97
71. RPDTGSDAAGHGFCYCAGSHKRKR  2.97
72. RPDTTDDAAGHGFCYCAGSHKRKR  2.97
73. TPDTGDDAAGHGFCYCAGSHKRKR  2.97
74. RPDTGDDDAGHGFCYCAGSHKRKR  2.97
75. RPDMGDDAAGHGFCYCAGSHKRKR  2.98
76. QPDTGDDAAGHGFCYCAGSHKRKR  2.98
77. RPDTGDYAAGHGFCYCAGSHKRKR  2.99
78. RPDTGWDAAGHGFCYCAGSHKRKR  2.99
79. RPDTVDDAAGHGFCYCAGSHKRKR  2.99
80. KPDTGDDAAGHGFCYCAGSHKRKR  2.99
81. RPDVGDDAAGHGFCYCAGSHKRKR  3
82. RPDTGDDAPGHGFCYCAGSHKRKR  3.01
83. RGDTGDDAAGHGFCYCAGSHKRKR  3.01
84. RPDTGDCAAGHGFCYCAGSHKRKR  3.02
85. RADTGDDAAGHGFCYCAGSHKRKR  3.02
86. RPDTGDLAAGHGFCYCAGSHKRKR  3.03
87. RPDTGDKAAGHGFCYCAGSHKRKR  3.03
88. RPWTGDDAAGHGFCYCAGSHKRKR  3.04
89. RPDTGDDAYGHGFCYCAGSHKRKR  3.05
90. RPDTGDDAEGHGFCYCAGSHKRKR  3.05
91. RPDTGIDAAGHGFCYCAGSHKRKR  3.05
92. RMDTGDDAAGHGFCYCAGSHKRKR  3.05
93. RPDTGDDAQGHGFCYCAGSHKRKR  3.06
94. RPDIGDDAAGHGFCYCAGSHKRKR  3.06
95. RPDAGDDAAGHGFCYCAGSHKRKR  3.06
96. RPDSGDDAAGHGFCYCAGSHKRKR  3.06
97. RPDTGDDIAGHGFCYCAGSHKRKR  3.06
98. RPDTGDDAKGHGFCYCAGSHKRKR  3.07
99. RPDTGDIAAGHGFCYCAGSHKRKR  3.08
100. RIDTGDDAAGHGFCYCAGSHKRKR  3.08
101. RPDTGDDRAGHGFCYCAGSHKRKR  3.08
102. RPDTGDHAAGHGFCYCAGSHKRKR  3.09
103. RPDTGDDPAGHGFCYCAGSHKRKR  3.09
104. RPDTGDDAAHHGFCYCAGSHKRKR  3.1
105. RPDTLDDAAGHGFCYCAGSHKRKR  3.1
106. RPDHGDDAAGHGFCYCAGSHKRKR  3.11
107. RPDTGDDGAGHGFCYCAGSHKRKR  3.11
108. RPDTGDNAAGHGFCYCAGSHKRKR  3.13
109. RPDTGLDAAGHGFCYCAGSHKRKR  3.13
110. RPDKGDDAAGHGFCYCAGSHKRKR  3.14
111. RPLTGDDAAGHGFCYCAGSHKRKR  3.14
112. RPSTGDDAAGHGFCYCAGSHKRKR  3.14
113. REDTGDDAAGHGFCYCAGSHKRKR  3.14
114. RPDTGDDAAEHGFCYCAGSHKRKR  3.14
115. RPYTGDDAAGHGFCYCAGSHKRKR  3.15
116. RPDTGYDAAGHGFCYCAGSHKRKR  3.15
117. RPDTRDDAAGHGFCYCAGSHKRKR  3.15
118. RPDEGDDAAGHGFCYCAGSHKRKR  3.16
119. RPDTGDVAAGHGFCYCAGSHKRKR  3.16
120. RPDTGGDAAGHGFCYCAGSHKRKR  3.16
121. MPDTGDDAAGHGFCYCAGSHKRKR  3.16
122. RPDTGDDQAGHGFCYCAGSHKRKR  3.16
123. RPDTNDDAAGHGFCYCAGSHKRKR  3.17
124. RPDTGDDAATHGFCYCAGSHKRKR  3.18
125. RPDTGDDVAGHGFCYCAGSHKRKR  3.18
126. RPRTGDDAAGHGFCYCAGSHKRKR  3.19
127. RPDTGDDAAMHGFCYCAGSHKRKR  3.2
128. WPDTGDDAAGHGFCYCAGSHKRKR  3.2
129. LPDTGDDAAGHGFCYCAGSHKRKR  3.2
130. RPDTGADAAGHGFCYCAGSHKRKR  3.21
131. RPDTGDDAAKHGFCYCAGSHKRKR  3.22
132. RPDTGRDAAGHGFCYCAGSHKRKR  3.23
133. RCDTGDDAAGHGFCYCAGSHKRKR  3.23
134. RPDTGDDCAGHGFCYCAGSHKRKR  3.23
135. RPDTGDDEAGHGFCYCAGSHKRKR  3.26
136. RPDTGDDAAGFGFCYCAGSHKRKR  3.27
137. RPDTGKDAAGHGFCYCAGSHKRKR  3.27
138. RNDTGDDAAGHGFCYCAGSHKRKR  3.27
139. RPDTYDDAAGHGFCYCAGSHKRKR  3.27
140. RPDFGDDAAGHGFCYCAGSHKRKR  3.28
141. RPDTGDPAAGHGFCYCAGSHKRKR  3.28
142. RPDTIDDAAGHGFCYCAGSHKRKR  3.28
143. RPITGDDAAGHGFCYCAGSHKRKR  3.29
144. RPDTGDGAAGHGFCYCAGSHKRKR  3.3
145. RPNTGDDAAGHGFCYCAGSHKRKR  3.31
146. RKDTGDDAAGHGFCYCAGSHKRKR  3.35
147. RPDTGDDAAQHGFCYCAGSHKRKR  3.36
148. RPDTGDDAADHGFCYCAGSHKRKR  3.37
149. RPDTADDAAGHGFCYCAGSHKRKR  3.37
150. RPDTGDDWAGHGFCYCAGSHKRKR  3.38
151. RPHTGDDAAGHGFCYCAGSHKRKR  3.4
152. RWDTGDDAAGHGFCYCAGSHKRKR  3.4
153. RYDTGDDAAGHGFCYCAGSHKRKR  3.41
154. RPDTGDDAGGHGFCYCAGSHKRKR  3.43
155. RPDTGDMAAGHGFCYCAGSHKRKR  3.44
156. RPDTGDDAAGDGFCYCAGSHKRKR  3.45
157. RPDTKDDAAGHGFCYCAGSHKRKR  3.45
158. RPDTGDDARGHGFCYCAGSHKRKR  3.46
159. RPDTGDAAAGHGFCYCAGSHKRKR  3.46
160. RPDTGEDAAGHGFCYCAGSHKRKR  3.46
161. RPDTGQDAAGHGFCYCAGSHKRKR  3.46
162. RDDTGDDAAGHGFCYCAGSHKRKR  3.46
163. RPDQGDDAAGHGFCYCAGSHKRKR  3.47
164. RPDTGDSAAGHGFCYCAGSHKRKR  3.47
165. RPDTPDDAAGHGFCYCAGSHKRKR  3.48
166. RPDTGDDAAGEGFCYCAGSHKRKR  3.49
167. RPDTGDTAAGHGFCYCAGSHKRKR  3.49
168. RPDTGDDAAVHGFCYCAGSHKRKR  3.49
169. RPDTSDDAAGHGFCYCAGSHKRKR  3.5
170. RPDTGDRAAGHGFCYCAGSHKRKR  3.51
171. RPDTGDDANGHGFCYCAGSHKRKR  3.52
172. RPDTGDDATGHGFCYCAGSHKRKR  3.55
173. RPDTGNDAAGHGFCYCAGSHKRKR  3.57
174. RPDRGDDAAGHGFCYCAGSHKRKR  3.6
175. RPDTGDDHAGHGFCYCAGSHKRKR  3.61
176. RPKTGDDAAGHGFCYCAGSHKRKR  3.62
177. RPDTCDDAAGHGFCYCAGSHKRKR  3.63
178. RPDTGDDAAGAGFCYCAGSHKRKR  3.64
179. RPPTGDDAAGHGFCYCAGSHKRKR  3.64
180. RPDTGDDAANHGFCYCAGSHKRKR  3.71
181. RPDTGDDSAGHGFCYCAGSHKRKR  3.72
182. RPDDGDDAAGHGFCYCAGSHKRKR  3.79
183. RPDTGCDAAGHGFCYCAGSHKRKR  3.8
184. RPDTGDDADGHGFCYCAGSHKRKR  3.81
185. RPDTGDDACGHGFCYCAGSHKRKR  3.89
186. RPVTGDDAAGHGFCYCAGSHKRKR  3.91
187. RPDGGDDAAGHGFCYCAGSHKRKR  3.93
188. RPDTGDEAAGHGFCYCAGSHKRKR  3.95
